In the experiment the target is T1, mouse GUCY2c (mouse, UniProt Q3UWA6 20-1072).
T1 construct: whole, on cells; 300.19 cells over-expressing mouse GUCY2c, formalin-fixed paraffin-embedded cell pellets
T1 sequence (looked up): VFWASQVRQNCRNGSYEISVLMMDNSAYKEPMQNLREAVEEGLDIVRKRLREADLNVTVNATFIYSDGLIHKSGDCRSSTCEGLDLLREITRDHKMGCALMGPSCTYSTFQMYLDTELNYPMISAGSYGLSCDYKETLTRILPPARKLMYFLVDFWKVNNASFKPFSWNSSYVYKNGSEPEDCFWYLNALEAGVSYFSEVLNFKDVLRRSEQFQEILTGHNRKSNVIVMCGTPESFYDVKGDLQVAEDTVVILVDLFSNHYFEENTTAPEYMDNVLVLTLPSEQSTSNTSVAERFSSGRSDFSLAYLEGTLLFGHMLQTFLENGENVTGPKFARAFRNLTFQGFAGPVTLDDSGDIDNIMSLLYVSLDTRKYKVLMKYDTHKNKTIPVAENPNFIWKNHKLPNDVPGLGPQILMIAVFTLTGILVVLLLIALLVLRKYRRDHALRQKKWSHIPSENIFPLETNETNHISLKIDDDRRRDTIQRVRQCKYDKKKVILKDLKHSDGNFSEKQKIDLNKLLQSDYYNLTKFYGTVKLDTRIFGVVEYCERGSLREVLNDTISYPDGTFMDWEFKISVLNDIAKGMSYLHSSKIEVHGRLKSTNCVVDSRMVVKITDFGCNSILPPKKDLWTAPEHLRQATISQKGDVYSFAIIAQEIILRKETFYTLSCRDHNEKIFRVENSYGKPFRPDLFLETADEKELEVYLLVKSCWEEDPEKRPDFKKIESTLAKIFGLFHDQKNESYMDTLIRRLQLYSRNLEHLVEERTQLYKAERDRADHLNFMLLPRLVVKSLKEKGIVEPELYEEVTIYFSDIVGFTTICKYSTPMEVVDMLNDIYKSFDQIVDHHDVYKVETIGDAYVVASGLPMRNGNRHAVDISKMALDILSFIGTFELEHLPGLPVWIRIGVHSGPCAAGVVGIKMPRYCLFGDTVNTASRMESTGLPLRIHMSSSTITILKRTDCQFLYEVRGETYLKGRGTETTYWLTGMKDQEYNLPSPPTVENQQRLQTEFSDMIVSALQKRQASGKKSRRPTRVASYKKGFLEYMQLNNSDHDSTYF
Briefly: IHC on FFPE pellets of 300.19 cells over-expressing mouse GUCY2c. How it is done: Empty holes were filled with paraffin and the array was allowed to warm at 40 ° C. in an incubator overnight to anneal the donor cores with the recipient block. Five micron sections of the cell microarray were cut, transferred to a water bath and placed on Superfrost Excell microscope slides (Fisher). Slides were allowed to dry overnight. After deparaffinization and rehydration of tissue sections, heat induced epitope retrieval was performed in the Retriever 2100 pressure cooker (Electron Microscopy Sciences) in Borg Decloaker buffer pH 9.5 (Biocare Medical) or pH 6.0 Citrate buffer (Thermo Scientific) followed by cooling to room temperature (RT). Endogenous peroxidase activity was inactivated with Peroxidazed 1 (Biocare Medical) for 10 m. Non-specific protein interactions were blocked for 10 m with Background Punisher (Biocare Medical). Each hybridoma was incubated without dilution for 1 h under both heat induced epitope retrieval conditions. Sections were rinsed in TBS and hybridoma binding was detected with Envision+ Mouse HRP (DAKO) for 30 m. Slides were rinsed in TBS and immunoreactivity was developed with Betazoid DAB Chromogen Kit (Biocare Medical) for 5 m, followed by rinses in distilled water. […] Slides were evaluated by a pathologist to assess immunoreactivity. […]

B1: Anti-GUCY2c antibody Ab288 (antibody, mouse IgG1, kappa, V domains shown)
VH: DVQLQESGPGLVKPSQSLSLTCTVTGYSITSDYAWNWIRQFPGNNLEWMGYISYSGSTRYNPSLKSRISITRDTSKNQFFLQLNSVTSEDTATYYCAREDGYVAMDYWGQGTSVTVSS
VL: DIVLTQSPASLAVSLGQRATISCRASESVEYFGTSFMQWYQQRPGQPPKLLIYAASNVESGVPVRFSGSGSGTDFSLNIHPVEEDDIAMYFCQQSRKVPWTFGGGTNLEIKR
As to B1, the binding result is “no binding (tested: 2 µg/ml and 10 µg/ml)”.
